System: citrated whole blood (CWB)
Assay: Interference testing for Rapidpoint ENOX test in citrated whole blood
Format: biochemical
Conditions: for EFFECT on ENOX test: CWB; for sensitivity of the ENOX test to the agent: in vitro, citrated whole blood

| Molecule | EFFECT on ENOX test (0-3600 ng/ml) | sensitivity of the ENOX test to the agent | EFFECT on ENOX test (1000-3200 ng/ml) | EFFECT on ENOX test (0-10,000 ng/ml) |
| --- | --- | --- | --- | --- |
| Abciximab (antibody, chains of the INN, looked up, V domains shown, Fab, antiplatelet agent tested as interferent) VH: EVQLQQSGTVLARPGASVKMSCEASGYTFTNYWMHWVKQRPGQGLEWIGAIYPGNSDTSYIQKFKGKAKLTAVTSTTSVYMELSSLTNEDSAVYYCTLYDGYYVFAYWGQGTLVTVSA VL: EIVLTQSPVTLSVTPGDSVSLSCRASRDISNNLHWFQQTSHESPRLLIKYASQSMSGIPSRFSGSGSGTDFTLSINSVETEDFGMYFCQQTNSWPYTFGGGTKLEIK | No effect at 0-3600 ng/ml | insensitive |  |  |
| Alteplase (protein, UniProt P00750 36-562, looked up, alteplase, fibrinolytic agent tested as interferent) Tissue-type plasminogen …: SYQVICRDEKTQMIYQQHQSWLRPVLRSNRVEYCWCNSGRAQCHSVPVKSCSEPRCFNGGTCQQALYFSDFVCQCPEGFAGKCCEIDTRATCYEDQGISYRGTWSTAESGAECTNWNSSALAQKPYSGRRPDAIRLGLGNHNYCRNPDRDSKPWCYVFKAGKYSSEFCSTPACSEGNSDCYFGNGSAYRGTHSLTESGASCLPWNSMILIGKVYTAQNPSAQALGLGKHNYCRNPDGDAKPWCHVLKNRRLTWEYCDVPSCSTCGLRQYSQPQFRIKGGLFADIASHPWQAAIFAKHRRSPGERFLCGGILISSCWILSAAHCFQERFPPHHLTVILGRTYRVVPGEEEQKFEVEKYIVHKEFDDDTYDNDIALLQLKSDSSRCAQESSVVRTVCLPPADLQLPDWTECELSGYGKHEALSPFYSERLKEAHVRLYPSSRCTSQHLLNRTVTDNMLCAGDTRSGGPQANLHDACQGDSGGPLVCLNDGRMTLVGIISWGLGCGQKDVPGVYTKVTNYLDWIRDNMRP |  | insensitive | No effect at 1000-3200 ng/ml |  |
| Tenecteplase (protein, UniProt P00750 36-562, looked up, variant T103N N117Q K296A H297A R298A R299A, tenecteplase, fibrinolytic agent tested as interferent) Tissue-type plasminogen …: SYQVICRDEKTQMIYQQHQSWLRPVLRSNRVEYCWCNSGRAQCHSVPVKSCSEPRCFNGGTCQQALYFSDFVCQCPEGFAGKCCEIDTRATCYEDQGISYRGNWSTAESGAECTNWQSSALAQKPYSGRRPDAIRLGLGNHNYCRNPDRDSKPWCYVFKAGKYSSEFCSTPACSEGNSDCYFGNGSAYRGTHSLTESGASCLPWNSMILIGKVYTAQNPSAQALGLGKHNYCRNPDGDAKPWCHVLKNRRLTWEYCDVPSCSTCGLRQYSQPQFRIKGGLFADIASHPWQAAIFAAAAASPGERFLCGGILISSCWILSAAHCFQERFPPHHLTVILGRTYRVVPGEEEQKFEVEKYIVHKEFDDDTYDNDIALLQLKSDSSRCAQESSVVRTVCLPPADLQLPDWTECELSGYGKHEALSPFYSERLKEAHVRLYPSSRCTSQHLLNRTVTDNMLCAGDTRSGGPQANLHDACQGDSGGPLVCLNDGRMTLVGIISWGLGCGQKDVPGVYTKVTNYLDWIRDNMRP |  | insensitive |  | No effect at 0-10,000 ng/ml |
